Results as given in publication PMC9520665, “Chaperonin containing TCP-1 (CCT/TRiC) is a novel therapeutic and diagnostic target for neuroblastoma” (Frontiers in Oncology, 2022).
Where no end group is shown, it is not given here.

Tests used:
full-length HIS-CCT2 = biological target: T1, full-length HIS-CCT2 (human, UniProt P78371-1 1-535); experiment: pull-down; 0.1-50 nmol biotin-CT20p (or biotin alone) mixed with 0.1 nmol recombinant CCT2 protein in 20 mM Tris-HCl, 3 h at room temperature, then overnight at 4°C with streptavidin-agarose beads; immunoblot for CCT2; conditions: both partners purified
T1 construct: CCT2, second subunit of chaperonin containing TCP-1 (CCT/TRiC); The species is stated for CCT2 in general (human), not for the recombinant construct; also called recombinant full-length CCT2 protein; CCTβ; source: E. coli BL21 (DE3) and Rosetta, purified (Ni-NTA, SEC)
T1 sequence (looked up): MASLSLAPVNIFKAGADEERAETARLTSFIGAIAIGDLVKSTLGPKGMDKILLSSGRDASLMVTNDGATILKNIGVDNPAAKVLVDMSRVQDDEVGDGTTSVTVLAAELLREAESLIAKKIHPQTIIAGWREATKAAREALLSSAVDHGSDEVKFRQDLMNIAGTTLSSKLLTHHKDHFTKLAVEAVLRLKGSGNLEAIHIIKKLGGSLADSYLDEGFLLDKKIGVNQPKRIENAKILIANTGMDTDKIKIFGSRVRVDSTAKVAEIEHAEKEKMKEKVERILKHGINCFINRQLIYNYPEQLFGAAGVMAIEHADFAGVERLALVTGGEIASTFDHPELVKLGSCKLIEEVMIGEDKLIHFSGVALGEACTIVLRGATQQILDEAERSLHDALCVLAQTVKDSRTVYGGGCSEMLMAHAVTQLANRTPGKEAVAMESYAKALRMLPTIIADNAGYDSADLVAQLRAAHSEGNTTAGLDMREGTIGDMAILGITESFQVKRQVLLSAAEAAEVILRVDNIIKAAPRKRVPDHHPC

CCT2(17-526) = biological target: T2, CCT2(17-526) (human, UniProt P78371-1 17-526); experiment: as above; conditions: both partners purified
T2 construct: CCT2 truncation that retains more of the equatorial domain; A TEV protease site replaced the thrombin site between GST and CCT2
T2 sequence (looked up): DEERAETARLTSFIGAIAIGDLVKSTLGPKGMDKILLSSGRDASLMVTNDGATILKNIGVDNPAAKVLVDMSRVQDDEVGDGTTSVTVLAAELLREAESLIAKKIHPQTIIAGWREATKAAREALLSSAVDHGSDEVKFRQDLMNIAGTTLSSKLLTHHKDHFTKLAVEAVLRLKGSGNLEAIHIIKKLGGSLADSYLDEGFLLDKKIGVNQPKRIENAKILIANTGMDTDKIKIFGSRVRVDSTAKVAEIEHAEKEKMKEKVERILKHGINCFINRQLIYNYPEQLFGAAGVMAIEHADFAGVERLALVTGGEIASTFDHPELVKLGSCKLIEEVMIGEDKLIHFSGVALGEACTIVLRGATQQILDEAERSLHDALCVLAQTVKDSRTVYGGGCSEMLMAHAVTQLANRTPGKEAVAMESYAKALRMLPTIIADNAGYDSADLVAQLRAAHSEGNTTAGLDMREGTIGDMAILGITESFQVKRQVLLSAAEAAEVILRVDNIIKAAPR

binding result (full-length HIS-CCT2): binds
binding result (CCT2(17-526)): binds
B1: biotinylated CT20p (peptide)
peptide: VTIFVAGVLTASLTIWKKMG
modifications: also: biotin, position not given here
notes: 20 amino acid amphipathic peptide derived from the C-terminus of the apoptotic protein Bax; also called biotin-CT20p; source: synthetic peptide, commercially synthesized (BioPeptides Inc)
